Here are results for 83 variants from the RNAGym collection of RNA variant scans (doi:10.1073/pnas.2313332121).

For some assays here: Fewer inactive variants are shown than the library holds. A value given as a limit tells only on which side of the number the result lay.

B1: TPR t1 (parent)
chain: GACCAAUCUGCCCUCAGAGCUCGAGAACAUCUUCGGAUGCAGAGGAGGCAGGCUUCGGUGGCGCGAUAGCGCCAACGUCCUCAACCUCCAAUGCAUCCCACCACAUGAUGAUGCCUGAAGAGCCUUGGUUUUUUG
B2: TPR 5TU (parent)
chain: GGAUCUUCUCGAUCUAACAAAAAAGACAAAUCUGCCACAAAGCUUGAGAGCAUCUUCGGAUGCAGAGGCGGCAGCCUUCGGUGGCGCGAUAGCGCCAACGUUCUCAACUAUGACACGCAAAACGCGUGCUCCGUUGAAUGGAGUUUAUCAUG

The variants in the first series derive from B1. Put plainly: polymerase ribozyme fitness, log enrichment relative to wild type (log ratio); higher = more active; in vitro selection for triplet polymerase activity. In outline: (§1)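 A single round of triplicate in vitro selection, including frozen incubation at −7 °C, was applied to PCR-built, transcribed mutant libraries of each subunit of a heterodimeric triplet polymerase ribozyme. Illumina sequencing of input and output libraries retained genotypes with ≥10 input reads and ≥1 read per output. Fitness is the base-2 logarithm of genotype enrichment divided by wild-type enrichment, from inverse-variance-weighted replicate averages.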
For A2C G71U G93A U109A G120C, the “polymerase ribozyme fitness (log ratio)” value is -6.66.

As for C53U C104U, the “polymerase ribozyme fitness (log ratio)” value turned out to be 0.142.

Turning to U7C G42U G60C G120A C124G G128A, the “polymerase ribozyme fitness (log ratio)” value was -3.07.

Take G48A C62U: the “polymerase ribozyme fitness (log ratio)” value was -0.525.

In the case of A50G G93C U109A G117C, the “polymerase ribozyme fitness (log ratio)” value is -6.26.

With C11U U112A, the “polymerase ribozyme fitness (log ratio)” value came to 1.19.

C64U U96C: the “polymerase ribozyme fitness (log ratio)” value was -0.0442.

Take C62G U129A: the “polymerase ribozyme fitness (log ratio)” value is -3.98.

Take G69A U96C: the “polymerase ribozyme fitness (log ratio)” value was -3.08.

G36C G51A C70A C101U: the “polymerase ribozyme fitness (log ratio)” value was -7.34.

As to G19A A95U C101U, the “polymerase ribozyme fitness (log ratio)” value was -3.88.

For the variant C11U A43U G60U A90C, the “polymerase ribozyme fitness (log ratio)” value was -1.62.

In the case of U21A C49A C56A A121U, the “polymerase ribozyme fitness (log ratio)” value turned out to be 0.0625.

On to U78C C114A, for which the “polymerase ribozyme fitness (log ratio)” value is -1.63.

Consider C3G C34G C76G A91C U109G, for which the “polymerase ribozyme fitness (log ratio)” value is -6.42.

As to A43C G44U, the “polymerase ribozyme fitness (log ratio)” value is -2.14.

Regarding C8A C12U C114U U116G, the “polymerase ribozyme fitness (log ratio)” value is -4.98.

As to C40U G52A, the “polymerase ribozyme fitness (log ratio)” value is -0.72.

Turning to U7G C8A C86U, the “polymerase ribozyme fitness (log ratio)” value was determined as 0.828.

With C22U U38G C73U, the “polymerase ribozyme fitness (log ratio)” value was -4.47.

As to C13A C40U, the “polymerase ribozyme fitness (log ratio)” value is -1.37.

As to A50C A75G A95C, the “polymerase ribozyme fitness (log ratio)” value is -0.114.

As for C13G G58U G60C, the “polymerase ribozyme fitness (log ratio)” value was -2.45.

On to C40A C86U G110U U112C, for which the “polymerase ribozyme fitness (log ratio)” value was -3.84.

G36A C72G G117A: the “polymerase ribozyme fitness (log ratio)” value is -3.71.

With G10U G77A U106G, the “polymerase ribozyme fitness (log ratio)” value was -2.38.

For the variant A16G C53G A84C C88A C101G, the “polymerase ribozyme fitness (log ratio)” value was -4.3.

As to C56U C94U, the “polymerase ribozyme fitness (log ratio)” value turned out to be 0.204.

For A26U A43U A121U, the “polymerase ribozyme fitness (log ratio)” value was -4.81.

G10A A95C: the “polymerase ribozyme fitness (log ratio)” value was -0.471.

In the case of A43C G52U, the “polymerase ribozyme fitness (log ratio)” value is -3.56.

In the case of G17A G71A C72U C94G C123G, the “polymerase ribozyme fitness (log ratio)” value is -5.54.

With C8U C56U C70A, the “polymerase ribozyme fitness (log ratio)” value was -4.3.

For C13A C56U C80A, the “polymerase ribozyme fitness (log ratio)” value was -2.82.

Regarding G39C G135U, the “polymerase ribozyme fitness (log ratio)” value is -0.712.

With G57U C72U C102A, the “polymerase ribozyme fitness (log ratio)” value is -2.25.

In the case of C72G G135U, the “polymerase ribozyme fitness (log ratio)” value was -0.702.

With A16G G51C C82A C124G, the “polymerase ribozyme fitness (log ratio)” value is -3.19.

In the case of C11U A41U C62U C85A C102U C114G G120C, the “polymerase ribozyme fitness (log ratio)” value is -6.27.

Consider A27G C49U C76G, for which the “polymerase ribozyme fitness (log ratio)” value is -2.99.

For C70A A111C, the “polymerase ribozyme fitness (log ratio)” value was -2.46.

C49G U96A U112A: the “polymerase ribozyme fitness (log ratio)” value was -0.269.

In another series the parent is B2. Described as above. In outline:
as §1
Regarding A3G A20C U53A G81C A121G, the “polymerase ribozyme fitness (log ratio)” value was -1.59.

Regarding A3C C69A C87G U146C C149U U151G, the “polymerase ribozyme fitness (log ratio)” value was ≤ -4.2.

On to A3C C85U G141C, for which the “polymerase ribozyme fitness (log ratio)” value is -2.07.

For the variant A3C G25A A40U G71A C85U C96U A119C A121G G140C, the “polymerase ribozyme fitness (log ratio)” value was ≤ -4.2.

With A3G A91U, the “polymerase ribozyme fitness (log ratio)” value was ≤ -4.2.

Turning to A3C C8U C18U A49G C87A, the “polymerase ribozyme fitness (log ratio)” value was ≤ -4.2.

Consider A3C C43U U53A U61G U101G U139A, for which the “polymerase ribozyme fitness (log ratio)” value was ≤ -4.2.

Turning to A3G A20U C27G G42A U56A U77G G86A G117U G133C, the “polymerase ribozyme fitness (log ratio)” value is ≤ -4.2.

As to A3C A60G, the “polymerase ribozyme fitness (log ratio)” value was -0.264.

On to A3C C76U C96A, for which the “polymerase ribozyme fitness (log ratio)” value was -0.525.

Take A3C U7A G84U U144G: the “polymerase ribozyme fitness (log ratio)” value was -2.38.

For the variant A3G A21C A60G C76A C85G, the “polymerase ribozyme fitness (log ratio)” value was -0.977.

Consider A3G A12C A39G A97U G133A G143C, for which the “polymerase ribozyme fitness (log ratio)” value was ≤ -4.2.

With A3G A17C G143C, the “polymerase ribozyme fitness (log ratio)” value is -2.6.

Take A3C G48U C69U: the “polymerase ribozyme fitness (log ratio)” value is -2.88.

Regarding A3G C5G G84A G88A, the “polymerase ribozyme fitness (log ratio)” value is -3.09.

For A3G A22C U45C A66C G67C C93U A113U, the “polymerase ribozyme fitness (log ratio)” value is ≤ -4.2.

Take A3C A12U U56A C93A A98U A107G C129U: the “polymerase ribozyme fitness (log ratio)” value is ≤ -4.2.

A3G A41U C96U: the “polymerase ribozyme fitness (log ratio)” value is -1.56.

Take A3C U45A G67U G71C G80C C95A C103A: the “polymerase ribozyme fitness (log ratio)” value is ≤ -4.2.

A3C G88C: the “polymerase ribozyme fitness (log ratio)” value is -4.14.

On to A3C A24G C36U A41U C72U C85A A91U U151A G152C, for which the “polymerase ribozyme fitness (log ratio)” value was ≤ -4.2.

Take A3C A30U C93U A115G: the “polymerase ribozyme fitness (log ratio)” value is ≤ -4.2.

On to A3C C85U C95U C114U G133C, for which the “polymerase ribozyme fitness (log ratio)” value is ≤ -4.2.

Take A3G A113G C118G: the “polymerase ribozyme fitness (log ratio)” value is -3.65.

Regarding A3C U9A A30U G48A U53A C54U G67U C93G G126A U135G, the “polymerase ribozyme fitness (log ratio)” value is ≤ -4.2.

With A3C G34A C96G, the “polymerase ribozyme fitness (log ratio)” value is -3.63.

With A3C A41G G84A G126C, the “polymerase ribozyme fitness (log ratio)” value was -0.499.

Take A3C C27U C35G C57A G84A C87U: the “polymerase ribozyme fitness (log ratio)” value was ≤ -4.2.

As to A3G C5G U15C G84U C108U A121U, the “polymerase ribozyme fitness (log ratio)” value was ≤ -4.2.

For the variant A3C C36G A60C G83U C118G U151C, the “polymerase ribozyme fitness (log ratio)” value was ≤ -4.2.

Consider A3C U4A U56G C57U C132A, for which the “polymerase ribozyme fitness (log ratio)” value is -4.08.

For the variant A3C C57U U82G G84A U90A C93G C149U, the “polymerase ribozyme fitness (log ratio)” value was ≤ -4.2.

In the case of A3C U4G A21C C38G A41C G68A G81A C85U C95U C116G, the “polymerase ribozyme fitness (log ratio)” value was ≤ -4.2.

Take A3G A26U C72U: the “polymerase ribozyme fitness (log ratio)” value is ≤ -4.2.

In the case of A3G A30G C38A G83A U101G, the “polymerase ribozyme fitness (log ratio)” value was ≤ -4.2.

A3C U4G A49U U61C G70A G92U: the “polymerase ribozyme fitness (log ratio)” value was ≤ -4.2.

As to A3C C5U C43U G70C G84A A106U A113C, the “polymerase ribozyme fitness (log ratio)” value was ≤ -4.2.

For A3G A12G A29G C38U G42C G86U A138C, the “polymerase ribozyme fitness (log ratio)” value is ≤ -4.2.

Consider A3C C10A G11U U55A G81C C85U G128A, for which the “polymerase ribozyme fitness (log ratio)” value was ≤ -4.2.

Regarding A3C C85U, the “polymerase ribozyme fitness (log ratio)” value was -1.46.
